Positions count from the first letter of the chain named.
Assays:
Test in all cases: EMSA; no nucleotide; 20 mM HEPES-NaOH pH 7.5 (Results say pH 7.2), 135 mM NaCl, 5% glycerol, 1 mM DTT, 1 mg/ml BSA, 20 min at 20 C; 0.4 nM T(35); G4 assay: 0.1 nM G4 DNA, 2% PEG 8000 instead of glycerol, 5 uM T(35) competitor
Settings in all cases: protein: recombinant; tags: His tag removed, GSRM left; label: 5' 32P (PNK)
hPIF1HD K485E = target: T1, hPIF1HD K485E (human, UniProt Q9H611 206-620, K485E)
T1 sequence: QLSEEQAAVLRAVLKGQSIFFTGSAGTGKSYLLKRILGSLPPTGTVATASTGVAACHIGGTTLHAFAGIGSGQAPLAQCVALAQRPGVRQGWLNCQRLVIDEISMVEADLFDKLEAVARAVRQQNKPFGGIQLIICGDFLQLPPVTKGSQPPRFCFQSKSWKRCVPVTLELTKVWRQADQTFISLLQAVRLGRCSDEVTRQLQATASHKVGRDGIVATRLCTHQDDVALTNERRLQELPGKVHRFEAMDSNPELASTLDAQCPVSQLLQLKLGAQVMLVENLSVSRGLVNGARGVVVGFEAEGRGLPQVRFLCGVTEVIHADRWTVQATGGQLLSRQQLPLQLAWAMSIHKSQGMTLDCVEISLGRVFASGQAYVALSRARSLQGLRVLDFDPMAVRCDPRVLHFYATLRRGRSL

hPIF1HD N495A = target: T2, hPIF1HD N495A (human, UniProt Q9H611 206-620, N495A)
T2 sequence: T1 sequence with E280K, N290A

hPIF1HD N486A = target: T3, hPIF1HD N486A (human, UniProt Q9H611 206-620, N486A)
T3 sequence: T1 sequence with E280K, N281A

Measured: binding signal

TTTTTTTTTTTTTTTTTTTTTTTTTTTTTTTTTTT (ssDNA) [poly-T(35)]
> 50 fold decrease in affinity vs WT: all assays above
